Reference: the DeepSol protein solubility set

experiment: soluble on expression in E. coli; label from the status in PepcDB or PDB records

Soluble on expression in E. coli, soluble:
MAHHHHHHMESISRTYENIKNDKNNLSNAENENNGNFKAPPNGTVCCPEDLKMYSTIQLNQEIEISKNPFPLHEINKKNDIPLCAQEFSDLTDPLYIKKICLEKVPEWNHFTEDNLRVKQILSGLTNQLFEVGLKEETANNYNSIRTRVLFRIYGKHVDELYNTISEFEVYKTMSKYKIAPQLLNTFNGGRIEEWLYGDPLRIDDLKNPTILIGIANVLGKFHTLSRKRHLPEHWDRTPCIFKMMEKWKNQLFKYKNIEKYNCDIHKYIKESDKFIKFMKVYSKSDNLANTIVFCHNDLQENNIINTNKCLRLIDFEYSGFNFLATDIANFFIETSIDYSVSSYPFFEIDKKKYISYENRKLFITAYLSNYLDKSLVVPTPKLIDEILEAVEVQALGAHLLWGFWSIIRGYQTKSYNEFDFFLYAEQRLKMYDDQKEYLISNNIIKGYD
MAHHHHHHMGAEHSTGMTKVLMPQFSTKRQTGPFLSPVERVTASGQSVVIECGDGVSRVDDGTAVVELFALDSKATEEDAMVEAFGEFAITKDDLIGRTRSSLKRGRVEEDEDLPCYFLAPRRRSCSVGGHNSADADSVLASPSRWGAVETDADGAMWRLLQEYDELLCVEAIGDATEDLYCYPDHRKDDEFDSNAEDFSGNDYPDDADERSGESAERAEEEASGFSTERRGGRVASHSTYGMFCEEGYSERSLSSVWNSDG
MAHHHHHHMGGYFSKDLEECLRNEKRNLNRSIRELEREIFKLTNEQSKIEKNIKINAKRNGDTSTVRTLARDYISIKKTIAKYNKLKSHLFSMKVKLQSVKSSEQLGRSLTEINRVIKRVNGYIKLTSLNKSINDFHKENNEVSLKEDMLDDLFEAFDYDSQMVAEEEELVTKVLEGMGIQMNAKLEDIPSPGELPKTQVDHLGVSDLEARINNLRLGKS
MAHHHHHHMGIGYSQPLTVDTAGPPSSFSCARTVAHVAALTIQRSTQFLGGSTPPPSQSHTHAHHRKKHSHVRSEIACWASATLPSHSNLQRLRDPTTAVNRHSKRCKGEMVVRRMPSDGAGSHATVSENRAPSKRKLRGGFLFASSKWREHLTCNNQNGDTEDHWGLGEGEVRFHSWERILALSVCPLFLLPDGRDSGVTALCGHTEGHEGKERTAVGIMLRTVVKMGDESELTKGGSRGN
MAHHHHHHMGIVRSRLHKRKITGGKTKIHRKRMKAELGRLPANTRLGARRVSPVRARGGNFKIRALRLDTGNFAWASEAIAHRVRLLDVVYNATSNELVRTKTLVKNCIVAVDAAPFKRWYAKHYGIDLDADKKSTKAAVAAEKKGRKSAHAAADKYDVNKASPKLQREWTRRRRNHRVEKAIADQLREGRVLARITSRPGQSGRADGILLEGAELQFYLKRLEKKKK
MAHHHHHHMGTLEAQTQGPGSMLYIIGLGLYDEKDITVRGLEAVKSCDLVFLEHYTAILQCDVAKLEEFYGKKVIIGDRDLVETEADQILEPAKTKNVALLVVGDVYGATTHSDIFVRCQKMGIEVKVIHNASIMNAIGCSGLQLYRFGQTVSVCFWSEHWRPSSYYPKIKINRDNNMHTLVLLDIKVKERSEESIIKGRDIFEPPRYMTINQCIEQLLEVEKEQHLGVYDEDTMVVGMARVACADQKIVYGKMKDLLHYDFGAPMHCLLIPAPQVDDPELDQLEYFKYKPE
MAHHHHHHMGTLEAQTQGPGSMSDIPSDLHYTAEHEWIRRSGDDTVRVGITDYAQSALGDVVFVQLPVIGTAVTAGETFGEVESTKSVSDLYAPISGKVSEVNSDLDGTPQLVNSDPYGAGWLLDIQVDSSDVAALESALTTLLDAEAYRGTLTE
MAHHHHHHMGTLEAQTQGPGSMTYETILVERDQRVGIITLNRPQALNALNSQVMNEVTSAATELDDDPDIGAIIITGSAKAFAAGADIKEMADLTFADAFTADFFATWGKLAAVRTPTIAAVAGYALGGGCELAMMCDVLIAADTAKFGQPEIKLGVLPGMGGSQRLTRAIGKAKAMDLILTGRTMDAAEAERSGLVSRVVPADDLLTEARATATTISQMSASAARMAKEAVNRAFESSLSEGLLYERRLFHSAFATEDQSEGMAAFIEKRAPQFTHR

Soluble on expression in E. coli, not soluble:
MAHHHHHHMEKQCPVCYFNLPDPESAIAPYDTELNYFMWGPGFEWQPEPEVKNILVEEENFEESEQSEESVAGLEELDEKVDRSEAKTMFNEKSSNGKVSVEDASQNARKLGLAPSSLDEKKVRDLYGDSLTYEQYLEYLAMCVHDRDNMEELIKMFSHFDNNASGFLTKNQMRNILTTWGDALTEQEANDALNAFSSEDRIDYKLFCEDILQ
MAHHHHHHMEKTIITLLPVVEKAPKENMERVLDVFRHYLKRYGADHYIYNAVMQAAAFAKNYEQAEQLFKEMETLGLEPNAQSYVNMMLAAKLCGLPPEKSEAYFKRAVKDGAMQSVMRMDTEFRMWMDQLDRLGSFTASSGYLSVNEEGAKPMPRDMWAIWGWHRSESKFISRRDLIMQQVRARVHSGKELVGTVYTKTRRQPWAKFNGMLRHDYNGPSYRAPTIFPDAPEYTNEAGHKAF
MAHHHHHHMESKVPLFLYFMVTNHPEVKQYTELLCHQVDQANRRLKDENFGDVYQEFGKDAGLAIKLGMVDCLQEPGLMAKFHIDPHMFPLIYFVRNKVFCDKMVGVVTESHVKEAVEAFIDDAKLESKSESEGASLFQKVRRQDDDDENAMTLIAAAHGKMQAGDPAKGKQLFEKALRMSMEDMEVVKKRYGVPNKKMTPELWAKLKREPCYNSAPEALCGLAMCAMASKQRDEAFRLAARVREEFPFAPQDMRGVAEAVVRIELIQVVDYDPDTDNYMRLLKFDELVSEPAQFYKHHLKRAVAFYVEGVAGQAIEECIRLIRAEPKLLSALKEGGIVPNDLRLGPTAVTPARQVIRAIFEALGPTNERVEKGRKLLQLYL
MAHHHHHHMFAFLNVAFMAAIRRKLKELKPPARRQSHRCAPEVYSQEGPTRHYFLPSVERIDKKTCISHRLLYIPEVENFPLVDGFFFVKSNPMTLVGLRMTTAGEHHTAASTVRQFTECLAAYFNGWEELSREMSWEMIYVQHADSTPMNDWQRCDVDNSNNLTEEGREIAAFWNEKVRQYQVSI
MAHHHHHHMFPGEQDITGSQLAEYVREQVQASANLVVYVEDTHCDVDTIGLRRLHATIGGTAVFSGYDLYRRSKYEKVEQGLDELWTSNVVLEASAIGSLSALCDNVRMVRRHEGCTIALAPQSLMHNVAFAVHLAVGVGARFLCVGGLMDVVQCEVVSQYLYVQDELEQSRLLLEEAPKPPCAVLPDAPTDTVPEIKRRLDKKKRKK
MAHHHHHHMGKLSKDRRDIYYRKAKESGYRARSSFKLIQINEKFGILKLFKPDIYNCNNEKDLINIYNEHYCYNIVDLCAAPGSWSQVLKNICLYNYYQILYMINKYNNNENIKNIQHEEFLNKFSLYINYNEELENKIKNLKIKCSNIKEPNIVAVDLQEIGNMNYVKIIQGDITKMSTIDKILKCMNNKINSDEENVNVFYNMEQQKKENNFSYAHTVVSDGAPDITGMNDIDEFIQSQLILSSLKVCCSVLKVGGNFISKIFRGEHTGLLILHLNKFFQRVYICKPQSSRNKSLESFLVCLNFSLPRSNIISMNNHNAENKINDKYLSEEQMRKFHAQLITYKDKDDQESEEKKENYNSHDNIDYNLCHTTKHNKNISDEIETKEVSSPYEHNNIVENNVTPNSDMLKNINKIINEYDNDKNNLDIFNFYCSDSDEEIKYFNSEDEEVVNNYISSESFMSNKLFSFIATDNYYDSDKSYLLPENYVRHEPQLMPLKPPYMLSLQKKRQEVKK
MAHHHHHHMHLLHDFKNIYCLLPSDYKNFLQKIRTLPCSVNKNMQGEKEIYILKKYMKMLNYEFITFIHGPYVLHICDPFYKIYLEWENGWKLYPLYQQNAERHFRENKITHLRKEGFSEILICHDAFANCPSDEEKMNYLSSVLQRTKFSKCSSIICGPAAIAPPPVVSPDIYL
MAHHHHHHMHMNNYHYNNYNVNFNPYNCGVVQESEKKNVGNVNNKVVLQKNYSNEYEMKYKEENKNNKINYLENLLNEPTAKEKKIKEEKTNILSIIEAPTVIEEMRIKKFQKKDDSVKIICPYLTKKVCQKHNKECNKVHFKKIISEHTDVSLGDCSYLDTCRHIETCKFVHYAVDKDDQQMNMNTQENLSQSKLSFSSNIKENVYGPQWIRCDLRNFDLSIFNKYVSVVMADPPWDIHMDLPYGTMTDNEMKLLPVQLIQDEGMIFLWVTGRAMELARECLQIWGYKRVEEILWVKTNHLQRIIRTGRTGHWLNHSKEHCLVGIKGNPIINRNIDCNVIVSEVRETSRKPDEIYSLIERLCPQNLKIELFGRPHNCRSNWITLGNQLNGVVLHHPQIKERYNKVATQFNLPLCEK
MAHHHHHHMHTDDKQAQRYPRTSDAARVHSTLRVGQNTSDKVPYGRLSSQSGPGTPRGDLFPPSNGLSKVEGEETPAAGAWQYPSEPMATPNTRSVQLNGALPVKNEEGETKCSGDAIREEGTKDGGDGVIIGIDAAVEAGVLVANEESGKEDENRESNVNSTPCASGTNETIATATPTLSNATAASVVLTPAVPASTGLRASRRLLDFTGSTNVSNGPRAASRLFDVKPVGGGAQAASQGVGFLRLSKTVPSAASQAVSARMRTSRKNGPTLSATSRGHSSTAHENLPCRNDYTSLRLKEQRRRELYAWNEELRRQDKSDMSADAV
MAHHHHHHMIPHICVNAANYSHTQFEECLTHMCDLSEELSAFKRTAVSLKRQATGDAETSKLALQYMEEALEKVLHVTQGVKEGNKTIGTAAAVKKSVIEAKIASDIADEEASKVERKLDKATRDAGNAEKNLQRILIYTARKACSSEGISSQDEEVKEAQCNVSTEIVYSCTRRPLKIKSDTLRKTYERLKSFTRTPNKTINEHLPKCHMWTELLEPAVASLTDMEKSASVARAYRNQVIKARGEAQQAAWTVGVTVQDVDGLDEVSEEDDFALAPVVLVAVLIVGAVLIDQHP
MAHHHHHHMKENYMIRHLFKKYGLKCYNSMSKGLLSNIRNGNSIVLYEKNVNKNLMNLLYKKHYNTYKNRVFNSAMYNNTPSNYMNNPENNNMNHLQNNSNYKYENPNNYYQPKYNNNLNNETNENNTTYQYFSIFGSTAMCLIKPIFPDYITNKNKVTIYGKGGFQFVFMRKQSNSNKYDKNNKMNIFIKINSLSNVLSLNDVEKLKNPIIIKGSNNNYLTIDKHKEKKDHIVIKYKYQPSNSPENNFNDMNNMDTDINENMIINDVNDEKRNNFEELHVSFSFSEFLLFQKAANLLLPQLIGWAKQY
MAHHHHHHMKKASKNSNYHGLEKSLRRRGGKIKTIYEKYKDIDFQNIIDEKIKYVWNYINNIDDIISDEEFLKEEIKQKLEKKQSLKKNDDFDEIIYYNKNVKNLINIQKVRKALYHFNIKVDMEDIMHMFLYYTNQDYFLKFIQNNIYSKNYVERKMDKYKFTSININNLYINYEMFKFIFLNIDMNIEQNGQMW
MAHHHHHHMKKRTPLVGKRSYFTSLYDTKTEKTKLISEMDDLYDHILTSNWNDSVHLVLNVSIWEGILHSIEARIKPYEQDEDILKKKKMINEMFDVLFILEDLRDHVNELLEQSSRASGLAGTYILASFKIENMVEHIEFLKAKYDELLLKYPLYKYQIDMVLGKGLALLRQRYTFEWRHMHDFFF
